Assays:
[1] = biological target: thyroid hormone receptor beta (TRb), His-tagged, from pETSUMO-TRb (UniProt P10828); test: peptide or protein array
[2] = biological target: human Hsp90a (heat shock protein 90 alpha), purified full-length (human) (UniProt P07900); test: peptide or protein array

| EC50 [2] [nM] | Substance | EC50 [1] [nM] |
| --- | --- | --- |
| – | human Hsp90a (heat shock protein 90 alpha), purified full-length (from UniProt P07900 1-732) (natural protein) | 124 |
| 1240 | thyroid hormone receptor beta (TRb), His-tagged, from pETSUMO-TRb (from UniProt P10828 1-461) | – |

Source: paper PMC9404468
